Assay: label from the status in PepcDB records

Sequence	protein production
MISEIIEFLESNFFYLHPGYTPLNTVVFGIVLGIAVLIILRMFRWLKKDPGELLVPLLPFIFLGSGARALVDNGIYPLTHLLVTPGIYILVGLTTIATLIAAVKLEETRGWDYRKLIFATGSVLAAPNLISIRHIDPVPFLSVLGVFSVFSAAFYALSLRWEFLRGRMNLPVIYAHLFDASSTYVAVDWYGYIEQHVLPSALTGLTGTAMVMFPLKMAVILTALYAIDRYVESDMDSEALKLVIFILGLAPGLRNFLSLSMAV	failed
MPSSDLRAFVVRVVIVLALVAYAWLLWALSGLLLMVFGAVVVAVLLRALASWVTRYTPLSDGMALGLVVVVVAVGFTALLWLFGSQLATELGALQRTLPQAWARFHDWVAAGPLGPALEELTRQAPARVSNLAPRAGAFALSITGGVANLFLVLAGAVYLAAQPQLYRRGVLLLFPVQVRATMDDAVRASGTALRLWLRGQLLAMVVVGALTGLGLWALGIPGALALGIIAGLLDFVPIVGPILAAIPAILLGFTVSPQMALATAALFVVVQQIEGNILLPLIQQRTVDLPPVLLLFSLFGIGTLLGPAGVLLAAPLTVVAFVLVKRLYVQEALHTPTSIPGQKHH	failed
MPKIPITLITGFLGSGKTSFLSEYLNQTDHQGVALIINEIGQAALDQRILSVQYCGEKMLYLNAGCVCCNKRLDLVESLKATLNNYEWHGEILRRIIIETTGLANPAPILWTILSDTFLGVHFEIQSVVACVDALNAREHLTNNEAKEQIVFADSVLLTKTDLQNDSAALTKLKERIQALNPSAEIFDKRAIDYESLFSRKNRARNFMPRMPKDSHSQGFETLSINFEGTMEWSAFGIWLSLLLHQYGTQILRIKGIIDIGSGFLVSINGVMHVIYPPKHILKDQNGSNLVFIMRHLEREKILNSLKGFKDFLGIKGFETQLEHHHHHH	not failed
MLFGDSVAIAFAQVSIHSRSKGHSAVAAAAYRSGARLYDDRIGRAYDFSKRDDVAFSEILLPDGTTDSFLERDYLWNEVERAENRSNSQLCKDFVLALPRELNLEQQIELAKRFARTHFVEKGLPADIAIHDHGDGNPHAHILIPTRRLENNRFSKYKARDLNPVFAKGFLVEQDYWGEQWREMQNEFFIENNLDLQVDANHLIAERHRGKHHNANAHYLLEENQLIQQARMELTRDNIDLVIDHLSTQYSVFTRRDVERLLFKTFQASDSPQEYLQFVERVLGHQDLVALGDNNKGEPSFTTRTHLMQEAQLLHDIEAMMVSKNHVVHQPIDSLAQQYRLSEEQYEAFRYITQSPDISVVIGRPGTGKSYLLKPLNEYYIQAGMEVIGAALSGKVAKALQAETGITSSTIKSLSYRLANDMMQLSDKHVLIIDEAGMVDFSSMGYLIKEAHKAGSKVVLIGDPDQLKPIQKGEIFRGIAARTGYIELENIKRQQDLGDRQASLNLAKGDIDKAIQHYQDKGAITITDTKLQAIEQVVADWKQDLESTNMADSIMLSYTRKAVNHLNDLAREALIVENKIGEENIVYQGLERSLKISTGERLLLRENNKVLGVRNGDTATVKEINVQQMKIQLDSGELLIIPKEYKALDYAYALTVHKSQGMTAKKVRVLIDSKYWDRNLSFVAMTRHKEQLNIYADKENHPTEQALKQTLSRSSTKDNVIDWPLDFAIRAGFDSDSLISRALNHIVGVGHKIKQAYNFIVNYEASLLKARHQERFQDIGQAIADAKQEALKVDTKEFESNDCKTSEQSFGILKKDFPQLVELETLIKRRQRMTGYFAEKTDKQIMALTQQLLTNKTFANQVKYQVPEFYQKLQSIDNKQKEKALLQNH	failed
MNTIVVAQLQRQFQDYIVSLYQQGFLDNQFSELRKLQDEGTPDFVAEVVSLFFDDCSKLINTMSISLERPDNVDFKQVDSGVHQLKGSSSSLCFVLSVGARRVKNVCISFKECCDVQNREGYSSNSHTNCDNDIWHRCLRCLQQVDYEYKMLKTKLQDLFNVSFKLCENLLVLLLEKQILQAGGTIPQVDIN	failed
IKATYETFSSPNGHGEGRGYLVMPQKKTIKSPTVLVIHENRGLNPYIKDVARRLAKDGFIAFAPDALYPLGGYPGNDDEGRAMQKEMDRAKIEQDFIAAAKFIKQHEHGNGKLGAVGFCFGGYVVNMLAAVMPNELDAGVPFYGTPAAEEIQKQVKGPLMLHFAGLDKRVNDTWPSYEQQLIASGAKYQALMYENVNHGFHNDSTARYAPEEAALAWERTLAFFKEHL	failed
MEQVSKSHENKAEEQTEGVGLLERLFKLSQHKTTVKTELMAGLTTFVTMSYIMFLNPIIMSKTGMPFDGLFLATCLGAAIATILMGMYANWPVGLAPGMGLNAFFTFSVVGSMGYSWQIALGAVFLSGVIFVLMSVTRLREWMLDSIPMSLRLAMTAGVGLFLGFIGLRFTGIVVANPDNVVALADMTHFGFGQFGPEAPALGFLSFLLIAILSYRKVFGAVLIGIAVTTFIAFAMTWVLPTDFFVVAEAAKSFAPASGFVAYKGLLAIPEFSALEPILWKADIVGAFEVALIPVIVTFLFVNIFDTAGTLMGVAERANLQDENGKIEGLSKSLKADSISSVIGTAFGCPPVTSYVESAAGVAAGGRTGLTAVTIGLLFAAGVFFLPLAQMLPGFAVDGALIYVAMLMMSSLRGLDWDDLTEYAPAVCTTVMMAFTFSIANGIAFGFITYTVLKVGAGKSSQVSNGVWALTVLFVAKFIFLN	failed
MAVPPVEMYSGSFWNRMRKPLPLRTQVIRFTVVFVIVSFILAVALQITHERMPDPKVTKPLPDLGFELLTKISFLSVVTDVLIAFLSLLSFFTLWKLYLLHRHCVGSGEPELPCNIPGVSRFFLSVWLCKENCRIELRNIHTIAWIRFITSYALLLLFRSLVIVMTSMPTPVDKCQDPPKIENPVKNVILTVLTAGGGSIHCGDLMYSGHTVILTLHLMFHWIYGAMVHWSFRPVVTVVAIFSYYCIVASRSHYTDDVLVAIYLTIATFIAVGHNADGAPWQLQLFIRWLPCCGANSREVTEDSQPVMVAFKSEAVDELRERDDSAGLSGEVSTNEVVSHHHHHH	failed
MQPQNIFDNEVFFQGYKKLRENPNSANILEEKPAIFSLLPELTGKKVLDLGCGYGENCNMFSKMGANKVVGIDVSSKMLAIANNDNSGDNIFYENMCMEDIFCINEKFDVVVSSLAVHYINDFNKLVCNVNSLLKDNGIFVFSQEHPLTTAPKNGARWFKNVDGRIAHYVLTDYATSGERTVSWIVDGITKYHRTFSDIVNALIDAGFIIEKMLEPVPTKEIIERDPSSAKDLHKPNFLVTRARKK	failed
MDLAGQGQYGQVYLAVNRESGDLVAIKVLSERQLLTRGFLRELNFLLTLQHPHVVGCQAIDYIRVHHSPQVSRSLVMDYCAGGTLRSLLEQEQALPLTTALRLTLDILSALAYAHHRGILHCDLKPENILLEVTATGWQAKVSDFGVARLIEDVKGSGQTGSPAYMAPERFYGQTMPASDLYAVGILLYEMIVGDRPFHGTPAELMAAHLSRPYTLPEGLPFLVRSIIAKALDKLPQRRYKSAAEMTMAVQLALEVIEAEHHQQPLLFSRSPAAVWLGEPQGFALPRLPQQVASTATGFYGVVGDRLWAWQARETIPEATAQWPLPPLPIQLYGSEVSAWLRINALPPQLFCIHDQLIPLDGHLPSTLNPLTIDARGYWWAETQIDSAAAELQLHVQLINGQGRRTLRCQWHGRTFVDTLLLNRRYGAVISRSQDPETAHPITHFQLFDRRGHWRLYTPLPAHLTLLTPAHHQPWQVAAFEDHPQQPLLVLLHLRPWRIQRLGLRFRPQFLCATPWGYVVAGRHSLNLVTHSGEIVGTAESEQEIDGLGFTGDRHLWLIRRQGSGCVIQTWDITTWDIHLIL	failed
MRRGDIGSCDRVDPSGKTLAGCDAGGDRGLGHGAFSSRAMWASDRTAARLLRPTLRQINTRLAGPPDPSISASMERAADMQTLLREIRNTPLLWMLVFVPIVLLAEAAAPHSHTLLFVLAVLAIVPLAALLSHATEAVAAKTGDAVGGLLNATLGNLTELIIAITALRAGQYMLVKASIAGAIVTNAVFMLGACLLLGGLRYHVQEYNRAGARLSSGLLLMATVALLAPSAVADLEHLPQGGGILNKLSVGISVLLIIAYALGLLFSLGTHKELFASADHGDDKEAHWPIGIAVGTLLVVTVLVALVSEIFVESVQKAAETFGMSPAFVGFIIVSLVGAAAEFAVAFGAARKDRLDMVVSIALGSASQIALFVAPALVLLSYVVGPTPMNLQFWPGAVTMVMIATVTSAFITASGRSAWFVGALMIFIYAVFALTLYVVPPAGEG	failed
MKRVANWLAITGFVVHAISLVAGLQGHTWETISKGYFLQMLSWSMLLIYLFVWWKFKLDFLSALASPFALLIYLSSFKVAEVQSKLPESLSGLFFGLHIGTLFLSFGLMAMAFGAGVLFLHMERKIKTKEPLTGFRKDLPALSTFDRVNRLCVVWGFPLFTLGIVSGFVWAHPAWGKVITWDPKEIVSLAVWVMYALLFHQRVALGWQGRKPAVMVIWIFAVSVFSLIVVNVFMPTHHSFIQQ	failed
MNPCGIQRYQTQMYTQVSYDFRLSWSSGKRSASGFEAVGGAKMAEEKLGMKTQVPASIESQKPRPKKAPEFPIVEKLNWLIHLYYIRKDYEACKAVIKEQLQETQGLCEYAIYVQALIFRLEGNIQESLELFQTCAVLSPQCADNLKQVARSLFLLGKHKAATEVYNEAAKLNQKDWEICHNLGVCYTYLKQFSKAQDQLHSALQLNKHDLTYIMLGKIHLLQGDLDKAIEIYKKAVEFSPENTELLTTLGLLYLQLGVYQKAFEHLGNALTYDPANYKAILAAGSMMQTHGDFDVALTKYRVVACAIPESPPLWNNIGMCFFGKKKYVAAISCLKRANYLAPFDWKILYNLGLVHLTMQQYASAFHFLSAAINFQPKMGELYMLLAVALTNLEDIENAKRAYVEAVRLDKCNPLVNLNYAVLLYNQGEKKGALAQYQEMEKKVHFLKDNNPLEFDSEMVEMAQKLGAALQVGEALVWTKPVKDPKSKHRTNSGSKSATLQQPLGSFQALGQAMSSAAAHRKIPSGAVGAQLTKPPSLPLEPEPEPTVEASPTEASEQNKEK	failed
MLKKMLKSYDYSLIFAIVLLCGFGLVMVYSSSMITAVSRYGVSSNFFFMRQLFALIAGGALFILMALFPYKALAHQKFQKGILLVSVLALISLFVFGHVAGNAQSWFKIGGMSIQPGEFVKLVVILYLAAVYAKKQSYIDHLLTGVAPPVVMTLIICGLIAMQPDFGTAMIIGLIATCMILCSGFSGKTLVRLVILGGIVFILVSPIIYLNQDKILTEGRLARFESLEDPFKYANSSGLQVINSYYAISSGGIFGLGLGESIQKYGYLPESHTDFIMAVIAEELGIFGVLFVIFLLGFVVIKGFYIARKCEDPFGSLLAIGISSMIAIQSFINLGGVSGLIPITGVTLPFISYGGSSLVLLLGSMGILANISMFVKYSENKKKKEPLAPKGMKKKQLKKTVYL	failed
MANISLKQGQFVTNSLPNKWKFRNLTKILLRRRFIVLGVSCMVISATSFTAITNKPTYKSQMQILVSPNVSEEVGITNNNIDIPISIEQYSVQKNLMQSSKLIDKVVNLLSFDYPNITKENILGKTENSENSPLKVTQLETNKGAKQVLSPVFEISFQDNDPLKTKKVLLALQKVYQDYNLERRQERFNQGLAFINARLPVIKQQLRQAERKLEQFRKKHNLLDPELQSQVLIKSLTKTQEQLQLTRTQLQDINSRYQNLEERITEASQKALVSMRLAQSSRYKTLTSELQKTEQSLAKEQLRYTDDSPIVQSLKQQRRSQLTLVRQELKRLTAELKTQTTPEPEQLVGVDPNLVEEFVQVQTTALGLIANEKSLRESEQRIRSELSKYPSLIAEYQRLLPEVETQRKTLEQMLQAQQSMGMKIAHGGFDWLVLEEANLGTYVGNDRFWLVFVGMITGPILGVVLALIWGMRHRIIHSAQDLQKVSNLRLLGTVPKLAPRTMEKRLPNLSWLGGRNLTESEEVGNSWLPCHETLDMVYQNTQILKYPFPFKSMMVTSALPGEGRTTLAMGLAASAAHMHRRVLLIDANLRSPKLHKILQLSNDWGLSLLLLDETNTEVQDYIQPIHPSIDILTAGPTPEDAVELLSSQRLKDLIELFEETYDLVLIDAPPILGTVDGRIVASYCHGIMMVGRIGWVTQTELTQAVEILNSLNLVGIIANDMSSYHKG	failed
MSLSNGELAILVFGYPETMANQVIAYFQEFGTILEDFEVLRKPQAMTVGLQDRQFVPIFSGNSWTKITYDNPASAVDALLENGAVFNGVLLGVIPYTKDAVERLQKRKLTSSEDIGSGITTAAAEGHHHHHH	not failed

— a protein production outcome set (Wang et al. 2014)
